These results are taken from the NTF2 design screens of Basanta et al. (2020).

A short description of the series: protease stability score; higher = more stable; yeast display proteolysis, trypsin and chymotrypsin.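 Note: relative to predicted unfolded state with 0 unfolded-like and 1 meaning tenfold more protease.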
Sequence “DEDTHWIRDALRRYEEMLRTGDEDLFRRLFDPHVRVEINGQENHGMESILKLYRDLVEHLGIKHVQEVELEDVNMIDGVIILHIRVRVRFDGKHETIRMNVVAYKVNGQWRLHELKEG” displayed a protease stability score of 1.47. Under “DEDTHYARHIMELIIRNFITGDEDDLLRLMDPNTRLHINGVDNHGREEIKRDLERWWHRYPNITVIIRVEHMTAIDGKAHSEMRVQIHYNGVTYSRETRVILIVINGRLHSVEFRID” stands 1.11. The sequence “DEDTKASELAIEILIKILLTGDEDSLNHLFDPNVRLEVGDKQMHGMESMVKFQRHWRVNHTIVKRMEIINIGDKMHIHLVGHINGDFNGKTSEHESHVHILNEKVNGRWLIRSMEIEIR” showed a protease stability score of 1.62. “DEDTKEADDFTKIWAKSVETGDEDMLKHLADPHVRVEIGDKVFIGRHFWLKVLRHIRVESVHVEDYKVQGEKVEYHVRFEVDINGQKVESTRRMIVRKVNGRWILETVILE”: the protease stability score was determined as 1.49. Under “DEDTKHDEEMFRLVLHLLRTGDEEKLTELADPNVRLEVDIDGRRDTYHGREEMLKWLQELLKRYKNMTIKVHRVSVVNGKAHMDGITKVGDKEFKELRIWVVIDGKIRTIKIEIL” stands 2.27; under “DEDTKIIKEMLDEMVHATLTGNEDLLRELVDPEVRIRVGDKEKHGWEFLFHMLKHLRIDRSEITIHSIRVVNGRVEVDGELRIIFTIGDKHIEFSTRVHIILEKVDGRWRVQALLFH”, 0.688; under “DEDTKIVEEAIRYHKHNIETGNEEYMDKLADPNTRLEINGVEFHGRESYNHWMRRVLEHWRFHDIKIDSVDVFNGRVRFYGRRIVKIGEFTMIFEITYISTKFNGRWILEEEENR”, 0.564. In the case of “DEDTKKAEEVLRMFDEAFRTGDEDILRELMDPNVRYVINGREFHGREEVTNAMRELHHRFDHFKSTHIKDHKIQGDKMDVHSTLTYHVNGKDIHVDSREVWVKVNGKWHLRKIIIH”, the protease stability score turned out to be 2.24. With “DEDTKLAKEAWRHLMENLHTGNEEIILHLVDPNAKFRYGEFEHHGRESLKWFRKRYDHIEVTHVEFHHVQVQGDKLIYHGTLEMSFEQGNKHEHWEYNVLLISRKINGRWIVKSIEVN” the figure was 0.953.

Take “DEDTKLAQKMSKLLNHAIHTGDEKILRQLLDPHVRVHIGDKEHHGWKEYEKIMQEWRFEHVETEHVSLVNGRLHIDSHIVGNIDGRRTEVETHIIIKKFDGRWIDTEFHMK”: the protease stability score was 0.583. As to “DEDTKLMEEVIRLHMELLKTGNWDELLHMLDPNAKFEAEGRDKHGWHNFLREYKHFYEELGFKHSRVHHVRVQGDKLEMDLRINVGDKEFETNLEVLKVNGRWLIKFVRID”, the protease stability score was 1.58.

The sequence “DEDTKLSKDAIRTFLESMVTGDEHILHRLADPNVKYSQGDKEYHGWEYAREFWSRVKNIRFHLKHYEVYGNKVHIEGELHVDGRHFEVHIVIIKFDGRWKIESHEIK” returned a protease stability score of 1.19. On to “DEDTKLVEEFLRDWLRALLTGDEEHLHKLLDPNTRVEINGQEFHGREMEVELMRHWRLDHIDIREIRITIIGNKVENHVRGRVDGEFDGRKINRETKLVNYVVKVNGRWLFHSMELRTH”, for which the protease stability score is 1.35.

Sequence “DEDTKMSEEALRILVEIWRTGDEDRFLELADPHTRILINGRELHGMEFFVTWLRKVKNLKIERIQLDHVRFIDGRAELETTIRLRYGDKHDDLTFKFISDKFDGRWVLSEIIII” had a protease stability score of 2.15.

Sequence “DEDTKRAEHIMRMFIHSMLTGDEKTTHELLDPEARVNINGVDLHGRETLLEHHHRWLHELRIEDMHTEHYEVQGDYVHLHTREVVVVDGRRIELTTTFLLLKVDGRWVWTHIHVK” displayed a protease stability score of 0.997.

In turn, “DEDTKRVEELMELWIEIWRTGDFKMLHHLLDPNVLLHVDIGDKHINVHGREEFTRFLEEELRKVKNAREEINDEKLVGDKVILDYSIHVNGRTLRVHLEIILIDGRMKVSRVKVK” gave a protease stability score of 2.14. Under “DEDTKTAWRMLHLSHKAIETGDEHLIKHLFDPHVRIHIDGVDLHGREELLTHLRHWRMVVEDEVSKDSKSYGDKITLDGHVDLTFEYNGRRVRVIFDTRIIIVKFNGRWLIKTIHFE” stands 0.512; under “DEDTKVVEEILRLLVEIWKTGDEHTWKRLLDPHARMDVDGRELHGREEIARHVKEETEKLGANVHNHVEIHHMEIIGNKVIIDGTVDGIVNGRITRIRVEVFWLVFDGVIKEEEHRVL”, 0.955; under “DEDTLIAKEIAELIIHALLTGDEDILKRLMDPTVKNDVNGVEFHGREILYKLLLEMRIHRVEYTHIDMRIYNGRAEVRIHGKIHVTINGVHDDKERRIDIIIVKINGKWTIESFVVHRL”, 2.53. The sequence “DEDTNIEKMASQRIFHDIMTGDFQSLWEMFDPNARLIQGDWHSHGRENIIIYYMELVEKLGVTNVRFRLEDEDSQGDKVIIHSSLNINGRHFKLDIHAVKINGRWFIREVDVRLH” showed a protease stability score of 1.4. Under “DEDTNLLREFVRLLSEALKTGDEDTLRTLFDPHVRFIIGDKDLVGREAFHFFLERFDVIRSVELHNYDHYGDKVTLDTRQVIHVNGQDIRIHSHIVVTKVNGRWRLESVKFK” stands 1.25. Under “DEDTQRREEWHHQFIMSMRTGDERLLLELVDPNYRSDINGVELHGWEFAEKLMRDAGVKHYELKRVHHIGDKMIVDGVTTFNGKERRVIFIARKIDGRWLITSSHFE” stands 1.31; under “DEDTQTLEKIWRDFVRALRTGDEDHLSRLLDPNTRIDINGKESHGRERAEEVLREMFERIDHFHRVEIHDRREVNGRVNLDTRRDVEVNGVRDMYTTHLIILKVDGKWSMKTIELK”, 1.33; under “DEDTRDAEHISRMMLHAFITGDERLIEKNADPDTRIDVNGVDYHGREEMVKLFKRWLDELGVNHMEIKETTTHVYDGRVEVVLHLHVDYNGRRHHLIIIIINDKFDGQWRIRSLEFEER”, 1.37. For “DEDTRDAEQFLKELLHNQITGDEESEDKLADPNVRIIINGREIHGRETWIKWRRQARITFEDQRVHSIHMIGDKLVLKIEIDGNLSFNGREIRDTVEIEIVVTKVNGRWVLDQVHFK”, the protease stability score came out at 1.63.

“DEDTRDTEIAFELLLRHMYTGDWHLVERMLDPNVRVHQGDFHTVGWEDFVRISLEARLHDMRIHQVRSQGDFVEIDGHVDFEINGKRIRVRTILIVLKVNGRWFLKSIEIR”: the protease stability score was 1.23. “DEDTRDVDRFLKRLEETLLTGDWNSIRELFDPNVKVIFNGRHRHGWQNMVDILREIRVTDVRMELDDVEQYGDKITIRGRLRFKGEINGKEQDTSLTIEIILIKVNGKWSVNSIEFR” yielded a protease stability score of 2.46. Under “DEDTREAEKMYRLFRHLFLTGDWEHTYQLADPHVRTDFNGVEWHGRELALEILLHFLEILGVDHITLKRQEIHIVDGRLLVILHLELRAENHSEDLLIIVIMNKFDGRWHVESEEIKVR” stands 0.539. In turn, “DEDTREKRRILEESLHIFETGDWEAMLKNADPNVRSEIHIGDKRLEFHGMRNWLEEWLTRLEKIKNMTFRIHDIRRQGDKVHIDGDLHVNGKHSKVRIELIIVDGVIHTLFFFDH” gave a protease stability score of 0.953.

Sequence “DEDTRESEKMLSEILESHLTGNWRMIRHLADPHVRVEIGDKTYHGRDNLKRIFLDLLEKLGVDHMEFRDIHIRVQGDKLHIHIKVDLIVGDKVDIMQSHIHVEKINGRWYVHLVHWRLT” gave a protease stability score of 0.817. “DEDTRIMEELLELTMEHVKTGDESSFRKLADPNVRMEYNGVEIHGREEASELFLEEMERIKNLTLRIKRLHIQGDKVIIYEEYEYGEKSWTVTYEAYKINGRWLMESIRFG” showed a protease stability score of 1.13. With “DEDTRKIYHWAELIVELLMTGDEDILHELADPDVKVHINGVTLHGREEADKFLEEWLRRFKNIQIRIRRITVINGRVDVESEVNVGDKRKDSRIHATVVNGRWKIISMDDH” the figure was 1.42; with “DEDTRLAEDELQLWVEHVETGDEDTLFELLDPNVRLHIGDKELHGREAWVQWLVEARVEHVHIRDIKVVDGKVLITGRIIFRVGDKRVDTDHHMIIEKINGRWVLHEIHFH”, 2.07. Under “DEDTRLEKEFLRILEEILKTGDEERLRRLVDPNTRLEVGDKRFHGWDAVHYMLRIFGIERIHFELTSRRRVNGRLELDGILRFNGRDHDTHIIIDKINGVWIVREERVE” stands 2.19; under “DEDTRMNELFVRLFYELLTTGDEEHIHEMFDPHARLDFDGQQYHGREDAVRKMHELSRRLGIKHIEIREFRKVGDWANLHGKIYVNGQEYELHVILHKVDGRWITRDIRIK”, 1.3. As for “DEDTTMLEEMARLLVEMWLTGDEEKIYKLADPDVRLNVNGKDQIGREESEKLRRELLETLGIKHFEVEDLKIRLIDGRVNVHIYGIVKFNGVNVKMILDHHSRKVNGRWRIEHLRIIHI”, the protease stability score came to 1.32. Turning to “DEDVEDSLRALRELTKSLITGDEDSFRHLADPHARFIWNGKEIHGWEEVVKVVSKILKHLRFDDIILRDIRIQGDKIEFVVTDLVTVGDKHEEVDSRVTIYKVNGRWLLHTIKIR”, the protease stability score worked out at 1.3.

As to “DEDVELFELIFKVMIELLETGNEELLRHLADPHTRVHINGVDFHGMEDWLKFLRHIRIEDIKIRHVSVVNGVMHAETETLMHVNGRDKRVDTRVTAIKINGRWVLKHVQYK”, the protease stability score came to 2.51. With “DEDVKLALHIIHLFIRALSTGNEELVKTYADPHWRLEIGDKILHGMDEWKEDLKELRIYYHHVTFRDYEIIDGRIIIHTELDGRLEVGDYEQRIRTRTHVFVDKINGRWDITHVEVR” the figure was 1.2; with “DEDVKTLEHLLRLINDINRTGDEERWMHEADPNTLVIYDGVESHGRESVMKLYHKHWEQLRIEEIHIHHIKMQGNKATIHGRLRGEIDGREKSFTIHVHIILINGQIQSITFRIE”, 1.02; with “DEDWHKLEETMRRFAKAMLTGDEDDLRKLADPDYRLDVNGRDLHGMESVKHWLDELRLVINDVKVREVHVIDGRLYLDTQVHSIETINGVEIRFVTETHVVIRKIDGKWINREMSIK”, 0.285.

“DEDYENFERFLKEWSHSVLTGNEDRLMELADPHTRLNINGVDIHGREEVLKFEHEHLKRVKGATLRRVRVRHYSFVNGVAFVETEFDGHINGVDYRLETEMHIHKFNGVWRMKHIEKK” had a protease stability score of 0.956. Under “DEEALKKLQDILRRNDQDKMNKMIDKDVRVVIGEHEYRGKRNVQEALKREYEHADRFEVKHIEDHGDKLHVDVVLRVDGRDIRFVVVIDVHNGNIRNVKVDFTDEDTQRDFQRQLD” stands 1.02; under “DEEDDEAREVHERLVRAFKTGNEELLLKMADPNTRDLFVVDGRTIHLVGWEHWRISLHELRIHDQRIRRSHVIDGRVHSDWEIDVEFNGRRSRKKLEIRIEVVNGVTKSVEFIFR”, 1.31. With “DEEDEALERSRQLLIKILRTGDFEDLDRMLDPHVRIIIGDKEFHGREEAIKWVRERMKRMGAKVVEHFNEDDWRLQGDKIELDGEYNVRQGDKQYHLRVHIISLKVDGKWYFHSLEIK” the figure was 0.232; with “DEEDEANKQIMEHLRKVWDTGDFHTYLRLADPHMRFIVGDKIFHGREEITQLIKELLEKFGADHVELENSRESLVGDKLHLDLHTRYHFNGREIRVDVHNEVTKIDGKWHIKFLSLRIK”, 1.42; with “DEEDEASHLALRLLEFTMKTGDERVSKENFDPNVRIEINGVDLHGWEHLTRILREIRIHDVRIEHSEVQGEKLILHGRMHWRVNGRDIEVETQVHAIKVDGKWRTKRIHFD”, 1.49.
